Reference: article doi:10.1101/2021.01.14.426695

Experiments:
[1] = target: S-R (SARS-CoV-2 S protein trimer, furin site deleted to a single arginine) (SARS-CoV-2); assay: negative stain EM
[2] = target: S-R/PP (SARS-CoV-2 S protein trimer, furin site deleted to a single arginine, two stabilizing prolines) (SARS-CoV-2); assay: negative stain EM

S-R (SARS-CoV-2 S protein trimer, furin site deleted to a single arginine)
stoichiometry N [1]: 3

S-R/PP (SARS-CoV-2 S protein trimer, furin site deleted to a single arginine, two stabilizing prolines)
stoichiometry N [2]: 3
